Series [1] concerns the target T1, Abz-GGFLRKHGQ-EDDnp.
T1 chain: GGFLRKHGQ

Series [2] concerns Abz-GGFLRKHGQ-EDDnp. The series can be described thus: Enzyme activity assay, kinetics of wild type rIDE and distal site mutants with fluorogenic substrate. The series is classed as biochemical. To be noted: Abz-GGFLRKHGQ-EDDnp substrate. The protocol:
FIG. 17. Effects of distal site mutations. (A) Comparison of the kinetics of wild type IDE with the distal site mutants. Activity was measured with varying amounts of Abz-[…]-EDDnp (SEQ ID NO:3) substrate as indicated. Either hyperbolic (Michaelis-Menten equation) or sigmoidal curves (Hill equation) were fit to the data. (B) Effect of bradykinin on the activity of wild type IDE and the distal site mutants. (C) Activation of wild type IDE and distal site mutants by ATP. Relative activity is the fold activation above the level of the wild type enzyme alone.
The activity of IDE was measured by following the increase in fluorescence upon hydrolysis at the L-R bond of the fluorogenic peptide Abz-[…]-EDDnp (SEQ ID NO:3) on a SpectraMax Gemini XS fluorescence plate reader using an excitation wavelength of 318 nm and emission wavelength of 419 nm. Reactions were carried out in 200 μl volumes containing 50 mM Tris-HCl, pH 7.4, 1.92 μg of wild type rIDE, 4.6 μg of rIDE-V360S, 4.3 μg rIDE-I374S, or 1.63 μg of rIDE-Y609F. For measurements of activation by bradykinin, IDE activity was determined with 10 μM Abz-[…]-EDDnp (SEQ ID NO:3) as substrate in 50 mM Tris-HCl buffer, pH 7.4. The amount of protein was 0.5 μg for wild type rIDE and 5 μg for each of the IDE distal-site mutants. Data were analyzed using Softmax 4.0 (Molecular Devices) and kinetic parameters calculated with Prism (Graphpad Software). […] Under these assay conditions, both wild type and mutant rIDE are almost completely dimeric.

Changes are numbered by the printed parent chain. Names may count otherwise. Like-named read-outs stand apart in the source and are kept apart here.

As usually defined, the Hill coefficient is a measure of the steepness of the concentration-response curve. What is called Km is the substrate concentration at which the rate is half of its maximum. The term Vmax denotes the top rate of the reaction or transport when substrate is in excess. One may read the kcat as the maximal rate divided by the concentration of active sites.

bradykinin, P01042, sequence (P01042 whole entry, looked up): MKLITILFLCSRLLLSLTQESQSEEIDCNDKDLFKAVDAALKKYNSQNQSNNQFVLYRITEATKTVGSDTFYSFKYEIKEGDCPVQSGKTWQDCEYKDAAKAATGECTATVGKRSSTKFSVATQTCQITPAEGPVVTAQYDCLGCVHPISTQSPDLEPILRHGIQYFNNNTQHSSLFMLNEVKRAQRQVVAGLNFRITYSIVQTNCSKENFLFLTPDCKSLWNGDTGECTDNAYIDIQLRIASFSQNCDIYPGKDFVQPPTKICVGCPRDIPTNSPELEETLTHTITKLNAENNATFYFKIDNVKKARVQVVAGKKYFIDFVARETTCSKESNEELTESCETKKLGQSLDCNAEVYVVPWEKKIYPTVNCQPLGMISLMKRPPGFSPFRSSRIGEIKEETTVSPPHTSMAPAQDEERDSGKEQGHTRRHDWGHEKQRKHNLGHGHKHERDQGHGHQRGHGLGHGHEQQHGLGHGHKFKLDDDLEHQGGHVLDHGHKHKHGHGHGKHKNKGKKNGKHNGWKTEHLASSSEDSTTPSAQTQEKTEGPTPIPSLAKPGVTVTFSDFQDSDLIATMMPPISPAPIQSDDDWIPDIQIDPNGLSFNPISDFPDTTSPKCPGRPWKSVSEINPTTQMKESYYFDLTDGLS

B1: wild type rat IDE (rIDE), Example 2 (protein)
chain: MNNPAIQRIEDHIVKSPEDKREYRGLELANGIKVLLISDPTTDKSSAALDVHIGSLSDPPNIPGLSHFCEHMLFLGTKKYPKENEYSQFLSEHAGSSNAFTSGEHTNYYFDVSHEHLEGALDRFAQFFLCPLFDASCKDREVNAVDSEHEKNVMNDAWRLFQLEKATGNPKHPFSKFGTGNKYTLETRPNQEGIDVREELLKFHSTYYSSNLMAICVLGRESLDDLTNLVVKLFSEVENKNVPLPEFPEHPFQEEHLKQLYKIVPIKDIRNLYVTFPIPDLQQYYKSNPGHYLGHLIGHEGPGSLLSELKSKGWVNTLVGGQKEGARGFMFFIINVDLTEEGLLHVEDIILHMFQYIQKLRAEGPQEWVFQECKDLNAVAFRFKDKERPRGYTSKIAGKLHYYPLNGVLTAEYLLEEFRPDLIDMVLDKLRPENVRVAIVSKSFEGKTDRTEQWYGTQYKQEAIPEDVIQKWQNADLNGKFKLPTKNEFIPTNFEILALEKDATPYPALIKDTAMSKLWFKQDDKFFLPKACLNFEFFSPFAYVDPLHCNMAYLYLELLKDSLNEYAYAAELAGLSYDLQNTIYGMYLSVKGYNDKQPILLKKITEKMATFEIDKKRFEIIKEAYMRSLNNFRAEQPHQHAMYYLRLLMTEVAWTKDELKEALDDVTLPRLKAFIPQLLSRLHIEALLHGNITKQAALGVMQMVEDTLIEHAHTKPLLPSQLVRYREVQLPDRGWFVYQRRNEVHNNCGIEIYYQTDMQSTSENMFLELFCQIISEPCFNTLRTKEQLGYIVFSGPRRANGIQGLRFIIQSEKPPHYLESRVEAFLITMEKAIEDMTEEAFQKHIQALAIRRLDKPKKLSAECAKYWGEIISQQYNYDRDNIEVAYLKTLSKDDIIKFYKEMLAVDAPRRHKVSVHVLAREMDSCPVVGEFPSQNDINLSEAPPLPQPEVIHNMTEFKRGLPLFPLVKPHINFMAAKL
In the case of B1, in the series with Abz-GGFLRKHGQ-EDDnp [1], the Hill coefficient was 1.8, the Km stood at 15.9 µM, the Specific activity is on record as 8,131 nmol/min/mg for the wild type enzyme and the maximal velocity (Vmax) was found to be 35.5 nmol/min/mg. Besides, the “Heterotropic activation of Abz-GGFLRKHGQ-EDDnp hydrolysis” value (“Heterotropic activation” for short) with bradykinin, P01042 was “approximately 4-fold for the wild type enzyme”.

B2: rIDE-Y609F (protein)
chain: B1 chain with Y568F
As for B2, in the series with Abz-GGFLRKHGQ-EDDnp [1], the Hill coefficient amounted to 1.04, the Michaelis-Menten constant (Km) came out at 6.86 µM and the Vmax is 2.6 nmol/min/mg. Moreover, the “Heterotropic activation” value with bradykinin, P01042 was “is also lost in all three mutants”.

B3: rIDE-V360S (protein)
chain: B1 chain with V319S
As to B3, in the series with Abz-GGFLRKHGQ-EDDnp [1], the Hill coefficient was found to be 1.07, the Km came out at 8.61 µM and the Vmax was 2.01 nmol/min/mg. In addition, the “Heterotropic activation” value in the series with bradykinin, P01042 is given as “is also lost in all three mutants”.

B4: rIDE-E111F (protein)
chain: B1 chain with E70F
Take B4: the Specific activity in the series with Abz-GGFLRKHGQ-EDDnp [1] is listed as 5.2 nmol/min/mg for the E111F mutant; with Abz-GGFLRKHGQ-EDDnp [2], 5.2 nmol/min/mg.

B5: rIDE-I374S (protein)
chain: B1 chain with I333S
Take B5: in the series with Abz-GGFLRKHGQ-EDDnp [1], the Hill coefficient turned out to be 1.12, the Km amounted to 8.5 µM and the maximum rate (Vmax) came to 3.45 nmol/min/mg. For the same molecule, the “Heterotropic activation” value with bradykinin, P01042 is reported as “is also lost in all three mutants”.

B6: wild type rat IDE, Example 1 (protein)
chain: TMNNPAIQRIEDHIVKSPEDKREYRGLELANGIKVLLISDPTTDKSSAALDVHIGSLSDPPNIPGLSHFCFHMLFLGTKKYPKENEYSQFLSEHAGSSNAFTSGEHTNYYFDVSHEHLEGALDRFAQFFLCPLFDASCKDREVNAVDSEHEKNVMNDAWRLFQLEKATGNPKHPFSKFGTGNKYTLETRPNQEGIDVREELLKFHSTYYSSNLMAICVLGRESLDDLTNLVVKLFSEVENKNVPLPEFPEHPFQEEHLKQLYKIVPIKDIRNLYVTFPIPDLQQYYKSNPGHYLGHLIGHEGPGSLLSELKSKGWVNTLVGGQKEGARGFMFFIINVDLTEEGLLHVEDIILHMFQYIQKLRAEGPQEWVFQECKDLNAVAFRFKDKERPRGYTSKIAGKLHYYPLNGVLTAEYLLEEFRPDLIDMVLDKLRPENVRVAIVSKSFEGKTDRTEQWYGTQYKQEAIPEDVIQKWQNADLNGKFKLPTKNEFIPTNFEILALEKDATPYPALIKDTAMSKLWFKQDDKFFLPKACLNFEFFSPFAYVDPLHCNMAYLYLELLKDSLNEYAYAAELAGLSYDLQNTIYGMYLSVKGYNDKQPILLKKITEKMATFEIDKKRFEIIKEAYMRSLNNFRAEQPHQHAMYYLRLLMTEVAWTKDELKEALDDVTLPRLKAFIPQLLSRLHIEALLHGNITKQAALGVMQMVEDTLIEHAHTKPLLPSQLVRYREVQLPDRGWFVYQRRNEVHNNCGIEIYYQTDMQSTSENMFLELFCQIISEPCFNTLRTKEQLGYIVFSGPRRANGIQGLRFIIQSEKPPHYLESRVEAFLITMEKAIEDMTEEAFQKHIQALAIRRLDKPKKLSAECAKYWGEIISQQYNYDRDNIEVAYLKTLSKDDIIKFYKEMLAVDAPRRHKVSVHVLAREMDSCPVVGEFPSQNDINLSEAPPLPQPEVIHNMTEFKRGLPLFPLVKPHINFMAAKL
For B6, in the series with Abz-GGFLRKHGQ-EDDnp [1], the Hill coefficient was found to be 2.1, the Vmax was found to be 47.2 nmol/min/mg and the kcat came out at 0.0867 s⁻¹.

B7: IDE^K898A,K899A,S901A (protein)
chain: B6 chain with F71E, K858A, K859A, S861A
Take B7: in the series with Abz-GGFLRKHGQ-EDDnp [1], the Hill coefficient was found to be 1.7, the Vmax worked out at 141 nmol/min/mg and the kcat turned out to be 0.258 s⁻¹. Further, in the series with bradykinin, P01042, the “effect of bradykinin on the rate of Abz-GGFLRKHGQ-EDDnp hydrolysis” value was “the observed rate for IDE^K898A,K899A,S901A was significantly reduced”.

B8: IDE^R429S (protein)
chain: B6 chain with F71E, R389S
Take B8: in the series with Abz-GGFLRKHGQ-EDDnp [1], the Hill coefficient was found to be 1.7, the maximum rate (Vmax) worked out at 42.3 nmol/min/mg and the kcat is 0.0783 s⁻¹.

Source of the values: US8632989B1, “Mutant insulin degrading enzyme and methods of use” (University of Kentucky Research Foundation, priority 2011, dated 2014).
